These sequences were tested on K4 kissing-loop RNA reporter (assay: apparent KD of K4 kissing-loop reporter; higher = weaker reporter binding). Conditions: Eterna round: R107; input ligand: theophylline 20 uM.
Procedure: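 RNA-MaP round R107: designed RNA switches with theophylline, tryptophan, arginine or FMN aptamers are transcribed on-chip within common flanks. They are titrated with a labelled K4 kissing-loop RNA reporter in RNA-MaP buffer (100 mM Tris pH 7.5, 80 mM KCl, 4 mM MgCl2), without ligand or with the indicated ligand. Median apparent KD per design.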
With “UUUAAACAUAGUGAUGUUAUGUAACAAUGACGAGGACCGGUACGGCCGCCACUCGAGAGAGAUGAUGGUAAAAUAAAUAAUUUUC [#10 K4 Tryptophan A Same State]” the “apparent KD of K4 kissing-loop reporter” value was 113 nM.
For “GGUCCGGGCUCGGCCGCCACUCCCUCCUGCCGGAAGGUGGGAUACCGAGUGAUGUUCGGUUGGAGGAGGACCGGGAGCCCGGACC [#2 Exclusion - Tryptophan B Attempt #13 (HarryS)]”, the “apparent KD of K4 kissing-loop reporter” value was 161 nM.
“CCGUAGCGAUCGGCCGCCACUCAAGAUCGCCAACUAUCACACGGUUCUCCCGAGUGAUGUUCUAGGAGGACCGGGAUUGUUGCUC [theeternabot_exclusion_KL_Trp_B_13]” was tested, and the “apparent KD of K4 kissing-loop reporter” value was 374 nM.
With “CAUACGCAUGGAGGAUAUGGGAUUACUCAUAUUACCCUGUAACAGGUAUCUCAGUGAUGUUGAGACUCAGAAGGCCAUGUGUAUG [Ex FMN B 23]” the “apparent KD of K4 kissing-loop reporter” value was 370 nM.
For “UUAGGAGUGGGAGGAUAUCCUAAUGUGGGUGAUGUUAGUGAUGUUGAAAGUGUAGUGAUGUUGUGCGGAGAAGGUCCAGUGUUGA [BDazzled - #11 - Exc. FMN B]”, the “apparent KD of K4 kissing-loop reporter” value was 192 nM.
For “AAACAUUGGUCGGAUACCAGCUUGAUCGGAAAACGAUCUGCUGGAGUGAUGUUCCAAUAAAGCCCUUGGCAGCCGACCGAUGAAA [MAT - Same State Theophlline B - Mod of Eli - D14]”, the “apparent KD of K4 kissing-loop reporter” value was 747 nM.
“UGUAUGUGAUUUGAUACCAGACCAGCUGGAGGAAUCUGAGUGAUGUUCAGGUAGGUUUGGGUCCCUUGGCAGCAAAUCGCAUACU [KL-SSTheoB17]” was tested, and the “apparent KD of K4 kissing-loop reporter” value was 192 nM.
With “CCAUUCUUUUACGAUACCAGUUUAAUAUAUUUAUUCAUAACCCUUGCCGAGUGAUGUUCGGACCCUUGGCAGCGUUUGCGAGAGG [lliltkmullin]” the “apparent KD of K4 kissing-loop reporter” value was 404 nM.

Same assay, conditions: Eterna round: R107; input ligand: tryptophan 2.4 mM
In the case of “GUCUCAAAAGAGGCAAGCACUCACGAGGACAAGGAUAUCAUAUCAAUGAGAAGGUGUCCUCGUCCUUAGUGAUGUUAAGGAGUGC [Omei KL FMN A SS E v3]”, the “apparent KD of K4 kissing-loop reporter” value was 330 nM.
“GGUUUAUAGGAGGAUACCAGUACGGAUAAAGUACGUUAAUAGUAGAGUGAUGUUCUAAAGUACCCUUGGCAGCUUAGAGUAAGUU [ExTheophylB.K]” was tested, and the “apparent KD of K4 kissing-loop reporter” value was 63.4 nM.
“UGUAUAUGAUGUGAUACCAGUGAAGAGCCAGUGAUGUUGGUAGAACUGGUAUAUAAAUAACACCCUUGGCAGCACAAUCACGUAC [whbob_Ex_Theo_B_sa98]” was tested, and the “apparent KD of K4 kissing-loop reporter” value was 196 nM.
In the case of “CGUUUAUAGCAGGAUACCAGUACCCAUAAAGUACGUUAAUAGUAGAGUGAUGUUCUGAAGUACCCUUGGCAGCUUCCGGUAAGUG [#25 K4 Theophylline B Exclusion]”, the “apparent KD of K4 kissing-loop reporter” value was 134 nM.
“AUGCGCGUGCGAUGUAAAUCGCACGCGCAUCGAGGACCGGUACGGCCGCCACUCGCUCGCGCCGAGUGAUGUUCGGCCGGCGAAC [#2 Same State - Tryptophan A Attempt #5 (HarryS)]” was tested, and the “apparent KD of K4 kissing-loop reporter” value was 476 nM.
With “UAUUAAUUGUCAGGAUAUCGUAUUCGAGUGAUGUUCGUAUAUCGACGAUAGUCGAUAUUAUUUAUACGAGAAGGGACAUUAUUUA [JR_SSFMNB_Sub005]” the “apparent KD of K4 kissing-loop reporter” value was 285 nM.
For “UUAUUAAUAACAGAUACCAGUCCAGAAUGAAAACUAUAGUGAUGUUAUAAUAAAGGGAAGGACCCUUGGCAGCUGUAAUAUAUUU [AstrosSSTheB#2]”, the “apparent KD of K4 kissing-loop reporter” value was 394 nM.
“UGUCAUUGGUCGGCCGCCACUUCAAGGUCAAAGACCAAAGAGUGAUGUUCUUAGACGAAAGUCAGAAGGACCGGGACCGAUGACU [TrypBS 9 #SwitchBubble #K4Middle]” was tested, and the “apparent KD of K4 kissing-loop reporter” value was 727 nM.
For “GAGGUACAGGCGGCCGCCACUAGUGAUGUUAGUGAUAGAAGAUAUAGUAAAUAUCGGCAUGUAGAUAGGACCGGGCCUGGUGGAG [vvgtcmullin]”, the “apparent KD of K4 kissing-loop reporter” value was 287 nM.
For “CCUAUCUCAUACGAUACCAGUCUACGAUAUUUUAUCGUUGCCAACACCGAGUGAUGUUCGGACCCUUGGCAGCGUAUGGGAUAGG [#03 K4 Theophylline B Exclusion]”, the “apparent KD of K4 kissing-loop reporter” value was 136 nM.
In the case of “UAAGCUCUGACGGCCGCCACUGCACGUGAUCCAGUAGUGGCUAACAUGAGUGAUGUUCAUGUAAGCAGGACCGGGUCAGAGCUAA [KL-XTryp-B13 #analogue]”, the “apparent KD of K4 kissing-loop reporter” value was 120 nM.
For “GUCUCAAAAGAGGCAAGCACUCACGAGGACAAGGAUAUCAUCUCAAUGAGAAGGUGUCCUCGUCCCUAGUGAUGUUAGGGAGUGC [Omei KL FMN A SS E v2]”, the “apparent KD of K4 kissing-loop reporter” value was 468 nM.
In the case of “GCGGGCCCGGGAGGAUAUGAGUCGAGUGAUGUUCGGCGGUCCAUGCCGUUGCGGCGUUAAGCCCUUUUAGAAGGCCCGGGCCCGC [#2 Exclusion - FMN B Attempt #2 (HarryS)]”, the “apparent KD of K4 kissing-loop reporter” value was 184 nM.
For “UCCACGCUUAGAGGAUAUCGGAUUAGAGUGAUGUUCUAAAGAAGCCCAGUGAUGUUGGAUGGUAUACGAGAAGGCUGAGGCGUGG [Same State FMN B GF 3]”, the “apparent KD of K4 kissing-loop reporter” value was 492 nM.
“UCAUCGGUACAAGGAUAUUAGAGGUAGUGAUGUUACCCGUUUUUUAUACAUCGAUGUCACCCUAACUAAGAAGGUGUUCAAACUU [theeternabot_exclusion_KL_FMN_B_7]” was tested, and the “apparent KD of K4 kissing-loop reporter” value was 38.4 nM.
In the case of “UGACGUUUGGGAAGGAGCGGAAUGUAAUACGGAGCGCGUGGAGAUGCAGUGAUGUUGCAGAUCCAGGUAGGUCGCCCAAGGGACG [Zati]”, the “apparent KD of K4 kissing-loop reporter” value was 79.6 nM.
For “GCCGUACGCAUGGAUACCAGUCUUAGAGUGAUGUUCUAUACGAUUGCGCCUGGAUCAAUGGACCCUUGGCAGCCAUGCGUACGGC”, the “apparent KD of K4 kissing-loop reporter” value was 124 nM.
With “UGUUUUUACUGAAGGAGCGGCAAUUGAUACGUAGAUAUAGUGAUGUUAUAUAAGAUAGAGAGCCAGGUAGGUCGCAGAGUUUUUC [ExArgB.Z]” the “apparent KD of K4 kissing-loop reporter” value was 154 nM.
In the case of “UGAUUGGCGAAAGUAGUGAUGUUACGAACAUAGGAUAUUAGAGGAAUAAGAAGGAUGAAUGAGAAAGGAAUAAAUUGUUGGUUGG [#08 K4 FMN A Same State]”, the “apparent KD of K4 kissing-loop reporter” value was 102 nM.
For “ACACUUUACGUAGGAUAUGCGACGAGUGAUGUUCGUCAGGCGGCCUUAGAUUAAACAAGCCGCCUAGCAGAAGGACGGGCAGUGU [Qumatiri]”, the “apparent KD of K4 kissing-loop reporter” value was 159 nM.
For “UGGAGUUGACGAAAAGUCAACUCCCGAGAAGGAGCGGACGAAAGUCCAGGUAGGUCGCUCACUACCAGUGAUGUUGGUACUAAAA”, the “apparent KD of K4 kissing-loop reporter” value was 111 nM.
“UAUACUAGACAAGAGAGAAUUCUCUCAAGAGAGGAUAUCCGAAUUCGGAGAAGGCUCUCUCAGUGAUGUUGGGAAUAGUCUAGAA [AK6 SS FMN A]” was tested, and the “apparent KD of K4 kissing-loop reporter” value was 177 nM.
With “GUAGGAUGGUGCGAUACCAGACCUGCAGUGAUGUUGCGCCAUAGUGAGUGAUGUUCACCGGUCCCUUGGCAGCGCGUCCAUAAAG [Same State Theophylline B GF 17]” the “apparent KD of K4 kissing-loop reporter” value was 882 nM.
For “GGCAUGCAUGGAAACAUGCAUGCCAUGCCUCGAGGACCGGUACGGCCGCCACUCGUUAAAAGAAAUGCCAGUGAUGUUGGCCGAA”, the “apparent KD of K4 kissing-loop reporter” value was 175 nM.
“UUUAAACAUAGUGAUGUUAUGUAACAAUGACGAGGACCGGUACGGCCGCCACUCGAGAGAGAUGAUGGUAAAAUAAAUAAUUUUC [#10 K4 Tryptophan A Same State]” was tested, and the “apparent KD of K4 kissing-loop reporter” value was 90.6 nM.
For “GGUCCGGGCUCGGCCGCCACUCCCUCCUGCCGGAAGGUGGGAUACCGAGUGAUGUUCGGUUGGAGGAGGACCGGGAGCCCGGACC [#2 Exclusion - Tryptophan B Attempt #13 (HarryS)]”, the “apparent KD of K4 kissing-loop reporter” value was 129 nM.
“CCGUAGCGAUCGGCCGCCACUCAAGAUCGCCAACUAUCACACGGUUCUCCCGAGUGAUGUUCUAGGAGGACCGGGAUUGUUGCUC [theeternabot_exclusion_KL_Trp_B_13]” was tested, and the “apparent KD of K4 kissing-loop reporter” value was 388 nM.
In the case of “CAUACGCAUGGAGGAUAUGGGAUUACUCAUAUUACCCUGUAACAGGUAUCUCAGUGAUGUUGAGACUCAGAAGGCCAUGUGUAUG [Ex FMN B 23]”, the “apparent KD of K4 kissing-loop reporter” value was 344 nM.
For “UUAGGAGUGGGAGGAUAUCCUAAUGUGGGUGAUGUUAGUGAUGUUGAAAGUGUAGUGAUGUUGUGCGGAGAAGGUCCAGUGUUGA [BDazzled - #11 - Exc. FMN B]”, the “apparent KD of K4 kissing-loop reporter” value was 157 nM.
With “AAACAUUGGUCGGAUACCAGCUUGAUCGGAAAACGAUCUGCUGGAGUGAUGUUCCAAUAAAGCCCUUGGCAGCCGACCGAUGAAA [MAT - Same State Theophlline B - Mod of Eli - D14]” the “apparent KD of K4 kissing-loop reporter” value was 780 nM.
For “UGUAUGUGAUUUGAUACCAGACCAGCUGGAGGAAUCUGAGUGAUGUUCAGGUAGGUUUGGGUCCCUUGGCAGCAAAUCGCAUACU [KL-SSTheoB17]”, the “apparent KD of K4 kissing-loop reporter” value was 209 nM.
In the case of “CCAUUCUUUUACGAUACCAGUUUAAUAUAUUUAUUCAUAACCCUUGCCGAGUGAUGUUCGGACCCUUGGCAGCGUUUGCGAGAGG [lliltkmullin]”, the “apparent KD of K4 kissing-loop reporter” value was 239 nM.
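Further: bound reporter read as fluorescence of individual clusters on recovered sequencing chips by microscopy, with normalized cluster intensities fitted with a binding model.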
